Source: patent publication US6051217, “Therapeutic uses of interleukin-3 (IL-3) multiple mutation polypeptides” (G. D. Searle & Co., dated 2000)

T1: hIL-3 receptor (human, UniProt P26951)
T1 sequence: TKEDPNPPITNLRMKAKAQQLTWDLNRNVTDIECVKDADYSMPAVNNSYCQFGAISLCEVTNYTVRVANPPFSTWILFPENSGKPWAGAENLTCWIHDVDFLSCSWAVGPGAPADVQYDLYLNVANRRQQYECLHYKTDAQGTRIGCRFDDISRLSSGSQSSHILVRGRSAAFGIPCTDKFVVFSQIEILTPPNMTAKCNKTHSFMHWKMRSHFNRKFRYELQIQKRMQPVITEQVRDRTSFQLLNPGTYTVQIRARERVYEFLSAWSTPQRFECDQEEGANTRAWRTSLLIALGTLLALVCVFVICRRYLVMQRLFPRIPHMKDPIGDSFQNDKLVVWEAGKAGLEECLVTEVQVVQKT


Each binder was assayed against T1, hIL-3 receptor (assay: cell-based or functional assay).

| Binder | Relative Biological Activity (AML 193 proliferation) |
| --- | --- |
| pMON13298 polypeptide (ligand) MANCSNMIDEIITHLKQPPLPLLDFNNLNGEDQDILMENNLRRPNLEAFNRAVKSLQNASGIEAILRNLQPCLPSATAAPSRHPIIIKAGDWQEFREKLTFYLVTLEQAQEQQ | 3 EC50 (1-133)hIL-3 / EC50 mutant |
| pMON13300 polypeptide (ligand) MANCSNMIDEIITHLKQPPLPLLDFNNLNGEDQDILMENNLRRPNLEAFNRAVKSLQNASGIEAILRNLVPCLPSATAAPSRHPITIKAGDWQEFREKLTFYLVSLEHAQEQQ | 3 EC50 (1-133)hIL-3 / EC50 mutant |
| pMON13299 polypeptide (ligand) MANCSNMIDEIITHLKQPPLPLLDFNNLNGEDQDILMENNLRRPNLEAFNRAVKSLQNASGIEAILRNLVPCLPSATAAPSRHPITIKAGDWQEFREKLTFYLVTLEQAQEQQ | 2 EC50 (1-133)hIL-3 / EC50 mutant |
| pMON13364 polypeptide (ligand) NCSIMIDEIIHHLKRPPNPLLDPNNLNSEDMDILMERNLRTPNLLAFVRAVKHLENASAIESILKNLLPCLPLATAAPTRHPIHIKDGDWNEFRRKLTFYLKTLENAQAQQ | 13 EC50 (1-133)hIL-3 / EC50 mutant |
| pMON13301 polypeptide (ligand) MANCSIMIDEIIHHLKRPPAPLLDPNNLNAEDVDILMERNLRLPNLESFVRAVKNLENASAIESILKNLLPCLPLATAAPTRHPIHIKDGDWNEFRRKLTFYLKTLENAQAQQ | 2 EC50 (1-133)hIL-3 / EC50 mutant |
| pMON13302 polypeptide (ligand) MANCSIMIDEIIHHLKRPPNPLLDPNNLNSEDMDILMERNLRTPNLLAFVRAVKHLENASAIESILKNLLPCLPLATAAPTRHPIHIKDGDWNEFRRKLTFYLKTLENAQAQQ | 1.2 EC50 (1-133)hIL-3 / EC50 mutant |
| pMON13303 polypeptide (ligand) MANCSIMIDEIIHHLKVPPAPLLDSNNLNSEDMDILMERNLRLPNLLAFVRAVKNLENASAIESILKNLLPCLPLATAAPTRHPIHIKDGDWNEFRRKLTFYLKTLENAQAQQ | 0.6 EC50 (1-133)hIL-3 / EC50 mutant |
| pMON13294 polypeptide (ligand) MANCSIMIDEIIHHLKRPPNPLLDPNNLNSEDMDILMERNLRTPNLLAFVRAVKHLENASGIEAILRNLVPCLPSATAAPSRHPITIKAGDWQEFREKLTFYLVSLEHAQEQQ | 3 EC50 (1-133)hIL-3 / EC50 mutant |
| pMON13287 polypeptide (ligand) MANCSIMIDEIIHHLKRPPAPLLDPNNLNAEDVDILMERNLRLPNLESFVRAVKNLENASGIEAILRNLQPCLPSATAAPSRHPIIIKAGDWQEFREKLTFYLVTLEQAQEQQ | 26 EC50 (1-133)hIL-3 / EC50 mutant |
| pMON13292 polypeptide (ligand) MANCSIMIDEIIHHLKVPPAPLLDSNNLNSEDMDILMERNLRLPNLLAFVRAVKNLENASGIEAILRNLVPCLPSATAAPSRHPITIKAGDWQEFREKLTFYLVTLEQAQEQQ | 6 EC50 (1-133)hIL-3 / EC50 mutant |
| pMON13368 polypeptide (ligand) MANCSIMIDEAIHHLKVPPAPLLDSNNLNSEDMDILMERNLRLPNLLAFVRAVKNLENASGIEAILRNLQPCLPSATAAPSRHPIIIKAGDWQEFREKLTFYLVTLEQAQEQQ | 1.6 EC50 (1-133)hIL-3 / EC50 mutant |
| pMON13295 polypeptide (ligand) MANCSIMIDEIIHHLKVPPAPLLDSNNLNSEDMDILMERNLRLPNLLAFVRAVKNLENASGIEAILRNLVPCLPSATAAPSRHPITIKAGDWQEFREKLTFYLVSLEHAQEQQ | 3 EC50 (1-133)hIL-3 / EC50 mutant |
| pMON13369 polypeptide (ligand) MANCSIMIDEIIHHLKRPPAPLLDPNNLNDEDVSILMDRNLRLPNLESFVRAVKNLENASGIEAILRNLQPCLPSATAAPSRHPIIIKAGDWQEFREKLTFYLVTLEQAQEQQ | 10 EC50 (1-133)hIL-3 / EC50 mutant |
| pMON13289 polypeptide (ligand) MANCSIMIDEIIHHLKVPPAPLLDSNNLNSEDMDILMERNLRLPNLLAFVRAVKNLENASGIEAILRNLQPCLPSATAAPSRHPIIIKAGDWQEFREKLTFYLVTLEQAQEQQ | 13 EC50 (1-133)hIL-3 / EC50 mutant |
| pMON13313 polypeptide (ligand) MANCSIMIDEIIHHLKRPPAPLLDPNNLNAEDVDILMERNLRLPNLESFVRAVKNLENASGIEAILRNLVPCLPSATAAPSRHPITIKAGDWQEFREKLTFYLVSLEHAQEQQ | 8 EC50 (1-133)hIL-3 / EC50 mutant |
| pMON13373 polypeptide (ligand) MANCSIMIDEIIHHLKRPPAPLLDPNNLNDEDMSILMDRNLRLPNLESFVRAVKNLENASGIEAILRNLQPCLPSATAAPSRHPIIIKAGDWQEFREKLTFYLVTLEQAQEQQ | 12 EC50 (1-133)hIL-3 / EC50 mutant |

| Binder | Relative Biological Activity (AML 193 proliferation) |
| --- | --- |
| pMON13290 polypeptide (ligand) MANCSIMIDEIIHHLKRPPAPLLDPNNLNAEDVDILMERNLRLPNLESFVRAVKNLENASGIEAILRNLVPCLPSATAAPSRHPITIKAGDWQEFREKLTFYLVTLEQAQEQQ | 20 EC50 (1-133)hIL-3 / EC50 mutant |
| pMON13366 polypeptide (ligand) MANCSIMIDEIIHHLKRPPAPLLDPNNLNNEDVSILMDRNLRLPNLESFVRAVKNLENASGIEAILRNLQPCLPSATAAPSRHPIIIKAGDWQEFREKLTFYLVTLEQAQEQQ | 38 EC50 (1-133)hIL-3 / EC50 mutant |
| pMON13312 polypeptide (ligand) MANCSIMIDEIIHHLKRPPNPLLDPNNLNSEDMDILMERNLRTPNLLAFVRAVKHLENASGIEAILRNLVPCLPSATAAPSRHPITIKAGDWQEFREKLTFYLVTLEQAQEQQ | 4 EC50 (1-133)hIL-3 / EC50 mutant |
| pMON13370 polypeptide (ligand) MANCSIMIDEIIHHLKRPPAPLLDPNNLNAEDMSILMDRNLRLPNLESFVRAVKNLENASGIEAILRNLQPCLPSATAAPSRHPIIIKAGDWQEFREKLTFYLVTLEQAQEQQ | 6 EC50 (1-133)hIL-3 / EC50 mutant |
| pMON13374 polypeptide (ligand) MANCSIMIDEIIHHLKRPPAPLLDPNNLNSEDMSILMDRNLRLPNLESFVRAVKNLENASGIEAILRNLQPCLPSATAAPSRHPIIIKAGDWQEFREKLTFYLVTLEQAQEQQ | 6 EC50 (1-133)hIL-3 / EC50 mutant |
| pMON13288 polypeptide (ligand) MANCSIMIDEIIHHLKRPPNPLLDPNNLNSEDMDILMERNLRTPNLLAFVRAVKHLENASGIEAILRNLQPCLPSATAAPSRHPIIIKAGDWQEFREKLTFYLVTLEQAQEQQ | 24 EC50 (1-133)hIL-3 / EC50 mutant |
| pMON13367 polypeptide (ligand) MANCSIMIDEIIHHLKRPPAPLLDPNNLNAEDVSILMDRNLRLPNLESFVRAVKNLENASGIEAILRNLQPCLPSATAAPSRHPIIIKAGDWQEFREKLTFYLVTLEQAQEQQ | 36 EC50 (1-133)hIL-3 / EC50 mutant |
| pMON13475 polypeptide (ligand) MANCSIMIDEAIHHLKRPPAPLLDPNNLNDEDVSILMDRNLRLPNLESFVRAVKNLENASGIEAILRNLQPCLPSATAAPSRHPIIIKAGDWQEFREKLTFYLVTLEQAQEQQ | 7 EC50 (1-133)hIL-3 / EC50 mutant |
| pMON13285 polypeptide (ligand) MANCSNMIDEIITHLKQPPLPLLDFNNLNDEDMSILMDNNLRRPNLEAFNRAVKSLQNASAIESILKNLLPCLPLATAAPTRHPIHIKDGDWNEFRRKLTFYLKTLENAQAQQ | 32 EC50 (1-133)hIL-3 / EC50 mutant |
| pMON13286 polypeptide (ligand) MANCSNMIDEIITHLKQPPLPLLDFNNLNDEDMSILMENNLRRPNLEAFNRAVKSLQNASAIESILKNLLPCLPLATAAPTRHPIHIKDGDWNEFRRKLTFYLKTLENAQAQQ | 8 EC50 (1-133)hIL-3 / EC50 mutant |
| pMON13329 polypeptide (ligand) MANCSNMIDEIITHLKQPPLPLLDFNNLNDEDMSILMENNLRRPNLEAFNRAVKSLQNASAIESILKNLLPCLPLATAAPTRHPIIIRDGDWNEFRRKLTFYLWTLENAQAQQ | 10 EC50 (1-133)hIL-3 / EC50 mutant |
| pMON13325 polypeptide (ligand) MANCSNMIDEIITHLKQPPLPLLDFNNLNDEDMSILMENNLRRPNLEAFNRAVKSLQNASAIESILKNLLPCLPLATAAPTRHPIHIKDGDWNEFRRKLTFYLWTLENAQAQQ | 8 EC50 (1-133)hIL-3 / EC50 mutant |
| pMON13326 polypeptide (ligand) MANCSNMIDEIITHLKQPPLPLLDFNNLNDEDMSILMDNNLRRPNLEAFNRAVKSLQNASAIESILKNLLPCLPLATAAPTRHPIHIKDGDWNEFRRKLTFYLWTLENAQAQQ | 25 EC50 (1-133)hIL-3 / EC50 mutant |
| pMON13330 polypeptide (ligand) MANCSNMIDEIITHLKQPPLPLLDFNNLNDEDMSILMDNNLRRPNLEAFNRAVKSLQNASAIESILKNLLPCLPLATAAPTRRPIIIRDGDWNEFRRKLTFYLWTLENAQAQQ | 19 EC50 (1-133)hIL-3 / EC50 mutant |
| pMON13375 polypeptide (ligand) MANCSIMIDEIIHHLKRPPAPLLDPNNLNAEDVDILMERNLRLPNLESFVRAVKNLENASGIEAILRNLQPCLPSATAAPSRHPIIIKAGDWQEFREKLTFYLVTLE | 14 EC50 (1-133)hIL-3 / EC50 mutant |
| pMON13376 polypeptide (ligand) MDNCSIMIDEAIHHLKRPPAPLLDPNNLNAEDVDILMERNLRLPNLESFVRAVKNLENASGIEAILRNLQPCLPSATAAPSRHPIIIKAGDWQEFREKLQFYLVTLE | 0.4 EC50 (1-133)hIL-3 / EC50 mutant |
